Experimental data taken from patent publication US20240358755A1 (IMMATICS BIOTECHNOLOGIES, published 2024).

Assays:
HLA-A*02:01 = biological target: T1, HLA-A*02:01 (human); experiment: UV peptide exchange, anti-b2m ELISA; exchange yield grade
T1 construct: Peptide-receptive MHC class I monomer in the UV-ligand exchange assay
Source text: (§1) Candidate peptides for T cell based therapies according to the present invention were further tested for their MHC binding capacity (affinity). The individual peptide-MHC complexes were produced by UV-ligand exchange, where a UV-sensitive peptide is cleaved upon UV-irradiation and exchanged with the peptide of interest as analyzed. Only peptide candidates that can effectively bind and stabilize the peptide-receptive MHC molecules prevent dissociation of the MHC complexes. To determine the yield of the exchange reaction, an ELISA was performed based on the detection of the light chain (β2m) of stabilized MHC complexes. The assay was performed as generally described in Rodenko et al. (Rodenko et al., 2006).
(§2) 96 well MAXISorp plates (NUNC) were coated over night with 2 μg/ml streptavidin in PBS at room temperature, washed 4× and blocked for 1 h at 37° C. in 2% BSA containing blocking buffer. […] Peptide-MHC monomers of the UV-exchange reaction were diluted 100-fold in blocking buffer. Samples were incubated for 1 h at 37° C., washed four times, incubated with 2 μg/ml HRP conjugated anti-β2m for 1 h at 37° C., washed again and detected with TMB solution that is stopped with […]. Absorption was measured at 450 nm.

HLA-B*07:02 = biological target: T2, HLA-B*07:02 (human); experiment: as above
T2 construct: Peptide-receptive monomer in the UV-ligand exchange assay
Source text: as §1, §2

Row | Binder | peptide exchange yield (HLA-A*02:01) [%] | peptide exchange yield (HLA-B*07:02) [%]
1 | ALGPMAFRV | ≥ 75 | 
2 | QPAPQPLL |  | 50 to 75
3 | GLLDAFLRL | ≥ 75 | 
4 | MPIQVLKGL |  | ≥ 75
5 | IPISIFKMA |  | 50 to 75
6 | VPHHLLSSV |  | ≥ 75
7 | TPLTRTTL |  | 50 to 75
8 | LPVHGPLPLLL |  | 50 to 75
9 | LLGVVSHSV | ≥ 75 | 
10 | SPSSPLLLLA |  | 50 to 75
11 | ALIVLHLSL | 20 to 50 | 
12 | SPAPSLARFLSL |  | ≥ 75
13 | SPSSNSREL |  | 50 to 75
14 | LLSRGILIL | ≥ 75 | 
15 | TLNVLITL | 20 to 50 | 
16 | TPSHSTPSF |  | 50 to 75
17 | YVGPTRLEL |  | ≥ 75
18 | RPSPVRVAAL |  | ≥ 75
19 | SLSKLVATV | ≥ 75 | 
20 | SLFPISLTV | ≥ 75 | 
21 | SLKSSILFL | 50 to 75 | 
22 | YPDVPIGQL |  | 50 to 75
23 | APSLARFLSL |  | ≥ 75
24 | RPQGVGPAA |  | ≥ 75
25 | HPRESLNMLVAF |  | ≥ 75
26 | RPSLPCRSF |  | 50 to 75
27 | IIIDRILLL | ≥ 75 | 

Row | Binder | peptide exchange yield (HLA-A*02:01) [%] | peptide exchange yield (HLA-B*07:02) [%]
28 | ASRIQVILL |  | 50 to 75
29 | IQAPALLKV | ≥ 75 | 
30 | RPIWDVRSA |  | ≥ 75
31 | SLQESLPNA | 50 to 75 | 
32 | RPLILIRI |  | 20 to 50
33 | APLRAGWAA |  | ≥ 75
34 | MPWVLMSPF |  | ≥ 75
35 | LVFESVVAA | ≥ 75 | 
36 | MPAFLSRASAL |  | ≥ 75
37 | NPELLVILL |  | 50 to 75
38 | VVHGGMSIF |  | 20 to 50
39 | FLLLEKGGEL | ≥ 75 | 
40 | RLQEGLAAL | ≥ 75 | 
41 | ILMILQPQL | ≥ 75 | 
42 | SLRVPSPAL |  | 50 to 75
43 | VLQSLQHEL | ≥ 75 | 
44 | MPFLKVPPL |  | ≥ 75
45 | MPCTTILRI |  | ≥ 75
46 | RPWLSSPTGL |  | ≥ 75
47 | MPKLFLTAC |  | ≥ 75
48 | RAPLPLLLL |  | 50 to 75
49 | SPIGLSLIL |  | ≥ 75
50 | APLLPGPAA |  | ≥ 75
51 | LPALLRSL |  | ≥ 75
52 | LPHPVNSGL |  | 50 to 75
53 | APGPRSQGL |  | 50 to 75
54 | IPLHFSTAF |  | ≥ 75
